Key:
Assay in all cases: pull-down
[1] = target: Myristoylated GINIP (myr-GINIP), C-terminally His-tagged (human, UniProt Q9UPV7 1-400, myristoylated (co-expression with N-myristoyl transferase))
[2] = target: GINIP ∆N16 (human, UniProt Q9UPV7 17-400)
[3] = target: GINIP WT, C-terminally His-tagged (pET21a(+)-GINIP-His) (human, UniProt Q9UPV7 1-400)

Measured: binding result

Myristoylated GINIP (myr-GINIP), C-terminally His-tagged, sequence (Q9UPV7 whole entry): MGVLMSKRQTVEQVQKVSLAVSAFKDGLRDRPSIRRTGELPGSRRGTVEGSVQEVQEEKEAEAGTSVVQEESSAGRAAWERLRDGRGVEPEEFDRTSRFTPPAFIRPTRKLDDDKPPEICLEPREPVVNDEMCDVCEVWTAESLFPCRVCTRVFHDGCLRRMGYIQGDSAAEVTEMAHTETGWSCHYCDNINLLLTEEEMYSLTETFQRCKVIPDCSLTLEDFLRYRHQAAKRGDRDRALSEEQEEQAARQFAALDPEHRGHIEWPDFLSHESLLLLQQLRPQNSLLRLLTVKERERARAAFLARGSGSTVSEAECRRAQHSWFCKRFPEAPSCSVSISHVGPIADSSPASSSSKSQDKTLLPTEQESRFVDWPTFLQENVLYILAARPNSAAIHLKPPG
GINIP WT, C-terminally His-tagged (pET21a(+)-GINIP-His), sequence (Q9UPV7 whole entry): as above
GINIP ∆N16, sequence (Q9UPV7 17-400): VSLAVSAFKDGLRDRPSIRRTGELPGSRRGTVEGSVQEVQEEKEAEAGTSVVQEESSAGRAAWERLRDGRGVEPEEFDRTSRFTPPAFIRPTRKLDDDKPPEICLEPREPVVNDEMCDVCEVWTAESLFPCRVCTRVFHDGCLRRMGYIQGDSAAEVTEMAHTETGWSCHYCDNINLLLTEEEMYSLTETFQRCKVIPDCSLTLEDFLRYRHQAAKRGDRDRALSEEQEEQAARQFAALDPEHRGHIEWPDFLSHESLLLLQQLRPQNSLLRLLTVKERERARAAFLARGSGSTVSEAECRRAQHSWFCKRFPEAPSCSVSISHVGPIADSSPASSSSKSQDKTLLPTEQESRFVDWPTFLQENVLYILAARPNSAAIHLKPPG

B1: GST-Gαi3 (natural protein)
chain: MGCTLSAEDKAAVERSKMIDRNLREDGEKAAKEVKLLLLGAGESGKSTIVKQMKIIHEDGYSEDECKQYKVVVYSNTIQSIIAIIRAMGRLKIDFGEAARADDARQLFVLAGSAEEGVMTSELAGVIKRLWRDGGVQACFSRSREYQLNDSASYYLNDLDRISQTNYIPTQQDVLRTRVKTTGIVETHFTFKELYFKMFDVGGQRSERKKWIHCFEGVTAIIFCVALSDYDLVLAEDEEMNRMHESMKLFDSICNNKWFTDTSIILFLNKKDLFEEKIKRSPLTICYPEYTGSNTYEEAAAYIQCQFEDLNRRKDTKEVYTHFTCATDTKNVQFVFDAVTDVIIKNNLKECGLY
binds: all assays above
